Results as given in PMC13598245, “A complex of MAST1 and 14-3-3η regulates Tau phosphorylation in the developing cortex” (Proceedings of the National Academy of Sciences of the …, 2026).

B1: GST-tagged 14-3-3η (coexpressed with MAST1^DK) (natural protein, UniProt Q04917 1-246, looked up)
chain: MGDREQLLQRARLAEQAERYDDMASAMKAVTELNEPLSNEDRNLLSVAYKNVVGARRSSWRVISSIEQKTMADGNEKKLEKVKAYREKIEKELETVCNDVLSLLDKFLIKNCNDFQYESKVFYLKMKGDYYRYLAEVASGEKKNSVVEASEAAYKEAFEISKEQMQPTHPIRLGLALNFSVFYYEIQNAPEQACLLAKQAFDDAIAELDTLNEDSYKDSTLIMQLLRDNLTLWTSDQQDEEAGEGN
notes: 14-3-3 protein eta
B2: 14-3-3η (purified, recombinant) (natural protein, UniProt Q04917 1-246, looked up)
chain: B1 chain
notes: 14-3-3 protein eta; also called purified 14-3-3η; source: purified recombinant

Biological target: the molecule itself
Assay: cross-linking + other: mass photometry; complex stabilised by glutaraldehyde cross-linking, then mass photometry (25 to 50 nM, 50 mM HEPES pH 7.4, 150 mM NaCl, 1 mM TCEP)

Protein	stoichiometry N
B1	2
B2	2
